Experimental findings from patent US20100317083A1 are described below.

The target of test [1] is human IgG3 purified from human plasma (human) (UniProt P01860). The test is described as follows: cell-based or functional assay.
The target is the same in test [2]. Kind of test: SPR (BIAcore), IgG3 immobilized, EndoS(E235Q) injected, deglycosylated IgG flow cell as reference.

Chain of UniProt P01860 (P01860 whole entry, form in doubt): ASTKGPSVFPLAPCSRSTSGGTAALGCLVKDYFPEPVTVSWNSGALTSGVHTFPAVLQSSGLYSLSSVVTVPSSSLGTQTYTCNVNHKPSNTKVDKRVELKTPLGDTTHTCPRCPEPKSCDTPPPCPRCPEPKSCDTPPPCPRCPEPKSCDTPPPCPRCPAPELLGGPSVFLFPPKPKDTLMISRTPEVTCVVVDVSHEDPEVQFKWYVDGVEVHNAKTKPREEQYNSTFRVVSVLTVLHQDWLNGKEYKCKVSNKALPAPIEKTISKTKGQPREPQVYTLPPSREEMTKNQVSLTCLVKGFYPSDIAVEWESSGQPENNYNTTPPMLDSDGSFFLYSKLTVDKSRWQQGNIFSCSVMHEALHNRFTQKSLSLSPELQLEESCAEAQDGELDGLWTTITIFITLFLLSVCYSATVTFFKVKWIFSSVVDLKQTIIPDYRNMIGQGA

On to “EndoS (Endoglycosidase S) from S. pyogenes AP1, recombinant, without GST (from UniProt Q99Y92 37-995) (enzyme)”, for which the SDS-PAGE migration of IgG after incubation with EndoS; LCA lectin blot in test [1] amounted to 3 kDa.

“EndoS(E235Q), modified EndoS polypeptide lacking IgG endoglycosidase activity (from UniProt Q99Y92 37-995) (enzyme)”: in test [2], the Kd is 83 nM, the koff came to 0.0089 s⁻¹ and the kon turned out to be 107000 M⁻¹ s⁻¹.
